Laboratory results as given in patent US20260209324A1.

Molecular target: LFA-1 on immune cells (THP-1 cells, activated T cells) (human) (UniProt P20701)

human recombinant EDIL3 (from UniProt O43854) (ligand)
adhesion of THP-1 cells on TNF-α stimulated TEC monolayers (% inhibition of adhesion): 55
